Measured values reported in US20100203046A1.

What was measured:
[1] = target: human FcγRIII (CD16), CD16a (F158), on CD16-transfected Jurkat cells (human) (UniProt P08637); experiment: summary of Table 5 assays
[2] = target: human FcγRIII (CD16), CD16a (F158), on CD16-transfected Jurkat cells (human) (UniProt P08637); experiment: CD16 bridging assay, purified

human FcγRIII (CD16), CD16a (F158), on CD16-transfected Jurkat cells (human), sequence (P08637 17-254): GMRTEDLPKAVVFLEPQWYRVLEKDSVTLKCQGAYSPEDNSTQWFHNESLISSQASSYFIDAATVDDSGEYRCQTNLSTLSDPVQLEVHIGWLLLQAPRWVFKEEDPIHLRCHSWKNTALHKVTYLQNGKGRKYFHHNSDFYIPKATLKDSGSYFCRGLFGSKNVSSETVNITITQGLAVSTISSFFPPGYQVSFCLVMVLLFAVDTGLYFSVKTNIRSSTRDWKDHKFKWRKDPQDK

fold decrease in binding vs WT [1]: > 10 fold
fold decrease in binding vs WT [2]: 20 fold
Substance: chCB6-huIgG1 Y296S (antibody)
